Assay: Test 1: antioxidant effect on linoleic acid, peroxides by ferric thiocyanate method
Type: biochemical
Details: 0.2% added to linoleic acid, 60° C.
Description: A sample was prepared by adding dl-α tocopherol (manufactured by Wako Jun-yaku Kogyo Company), bovine lactoferrin (manufactured by Sigma Company), hydrolysate of lactoferrin (prepared by the same method as in the Example 2), or peptide (prepared by the same method as in the Example 3) to a final concentration of 0.2% (weight percentage; same applies hereafter except for the degree of decomposition) to commercially available linoleic acid (manufactured by Wako Jun-Yaku Kogyo Company) containing no additive. Hereafter, the thus prepared samples are individually referred to as […].
Antioxidant effect of the individual samples was tested by the method of Mitsuda et al.(Eiyo to Shokuryo, Vol. 19, p. 210, 1966) described below.
The above-mentioned samples were added to a mixed solution containing 10 ml of ethanol, 10 ml of 0.1M phosphate buffer solution (pH: 7.0), and 5 ml of deionized water so as to achieve a final concentration of linoleic acid of […](mol/l). This solution was placed in a vial bottle having a capacity of 50 ml, and the closely plugged bottle was held in an incubator at 60° C. The total volume was always adjusted to 25 ml by reducing the above-mentioned ionized water, depending upon the quantity of added sample. At prescribed time intervals, 0.1 ml was sampled from this vial bottle to measure the quantity of peroxides by the following ferric thiocyanate method.
To the sample solution in an amount of 0.1 ml, 4.7 ml of 75% ethanol, 0.1 ml of 30% ammonium rhodanide, and 0.1 ml of 3.5% hydrochloric acid solution of 2×10^-2 M ferrous chloride were added, and absorbance at 500 nm was measured upon the lapse of just three minutes.

B1: Sample 3: Test 1 Sample 3: bovine lactoferrin (Sigma Company) added to linoleic acid (protein)
chain: APRKNVRWCTISQPEWFKCRRWQWRMKKLGAPSITCVRRAFALECIRAIAEKKADAVTLDGGMVFEAGRDPYKLRPVAAEIYGTKESPQTHYYAVAVVKKGSNFQLDQLQGRKSCHTGLGRSAGWIIPMGILRPYLSWTESLEPLQGAVAKFFSASCVPCIDRQAYPNLCQLCKGEGENQCACSSREPYFGYSGAFKCLQDGAGDVAFVKETTVFENLPEKADRDQYELLCLNNSRAPVDAFKECHLAQVPSHAVVARSVDGKEDLIWKLLSKAQEKFGKNKSRSFQLFGSPPGQRDLLFKDSALGFLRIPSKVDSALYLGSRYLTTLKNLRETAEEVKARYTRVVWCAVGPEEQKKCQQWSQQSGQNVTCATASTTDDCIVLVLKGEADALNLDGGYIYTAGKCGLVPVLAENRKSSKHSSLDCVLRPTEGYLAVAVVKKANEGLTWNSLKDKKSCHTAVDRTAGWNIPMGLIVNQTGSCAFDEFFSQSCAPGADPKSRLCALCAGDDQGLDKCVPNSKEKYYGYTGAFRCLAEDVGDVAFVKNDTVWENTNGESTADWAKNLNREDFRLLCLDGTRKPVTEAQSCHLAVAPNHAVVSRSDRAAHVKQVLLHQQALFGKNGKNCPDKFCLFKSETKNLLFNDNTECLAKLGGRPTYEEYLGTEYVTAIANLKKCSTSPLLEACAFLTR
Degree of peroxidation (absorbance at 500 nm) (period of preservation 0 days): 0 | Degree of peroxidation (absorbance at 500 nm) (period of preservation 3 days): 0.23 | Degree of peroxidation (absorbance at 500 nm) (period of preservation 6 days): 0.30 | Degree of peroxidation (absorbance at 500 nm) (period of preservation 10 days): 0.31 | Degree of peroxidation (absorbance at 500 nm) (period of preservation 13 days): 0.32

— patent US5804555A, “Antioxidant” (Morinaga Milk Industry Co., Ltd., priority 1992, dated 1998)
